This series deals with T1, PF3D7_0420300 D1 (Plasmodium falciparum, UniProt Q8I1N6 1956-2015).
T1 sequence: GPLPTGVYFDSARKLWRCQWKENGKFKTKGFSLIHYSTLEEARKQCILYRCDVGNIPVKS
Briefly: gcPBM; about 25 ug protein; PBS, 1% milk, 0.2 mg/ml BSA, salmon testes DNA, 0.03% Triton X-100. Particulars: tags: N-terminal GST (pGEX-4T-1), kept; label: surface-attached array probe.

Where a chain is given by its changes, count along the chain named.

B1: CACACA_site1736 (dsDNA)
DNA 1: ATAGTATACAGACACACACACACACCCATATATATA
DNA 2: TATATATATGGGTGTGTGTGTGTGTCTGTATACTAT
Consider B1, for which the binding signal was 10.4 ln median PBM intensity, better of two orientations.

B2: CACACA_negctrl_site942 (dsDNA)
DNA 1: ATATTATGAAGGGATATTTTCAAAAATATTAGGAGA
DNA 2: TCTCCTAATATTTTTGAAAATATCCCTTCATAATAT
On to B2, for which the binding signal is 9.11 ln median PBM intensity, better of two orientations.

B3: CACACA_site492 (dsDNA)
DNA 1: TAAACATACATATACACACACACACCCACACCCACA
DNA 2: TGTGGGTGTGGGTGTGTGTGTGTATATGTATGTTTA
B3: the binding signal was 10.4 ln median PBM intensity, better of two orientations.

B4: CACACA_negctrl_site608 (dsDNA)
DNA 1: GTATATATATATATATATATAATAGTAACTTTTACT
DNA 2: AGTAAAAGTTACTATTATATATATATATATATATAC
For B4, the binding signal is 9.1 ln median PBM intensity, better of two orientations.

B5: CACACA_site9187 (dsDNA)
DNA 1: AAAAAAAAAATACATACACACACACCCACCCATATA
DNA 2: TATATGGGTGGGTGTGTGTGTATGTATTTTTTTTTT
For B5, the binding signal is 10.4 ln median PBM intensity, better of two orientations.

B6: CACACA_negctrl_site1462 (dsDNA)
DNA 1: ATTTCTTTTTTTTTTTTTTTTAATGTAAAACATTTT
DNA 2: AAAATGTTTTACATTAAAAAAAAAAAAAAAAGAAAT
Regarding B6, the binding signal was 9.11 ln median PBM intensity, better of two orientations.

B7: CACACA_negctrl_site754 (dsDNA)
DNA 1: TATATTTGTACATGATATTTTTTTTTTCTTTTAAAA
DNA 2: TTTTAAAAGAAAAAAAAAATATCATGTACAAATATA
Regarding B7, the binding signal was 9.1 ln median PBM intensity, better of two orientations.

B8: CACACA_site638 (dsDNA)
DNA 1: AATACACGCAAACACACACACACACCCACATATATA
DNA 2: TATATATGTGGGTGTGTGTGTGTGTTTGCGTGTATT
As for B8, the binding signal was 10.5 ln median PBM intensity, better of two orientations.

B9: CACACA_site7104 (dsDNA)
DNA 1: B8 DNA 1 with T3C, A6G, A11G, C26G
DNA 2: B8 DNA 2 with G11C, T26C, T31C, A34G
For the molecule B9, the binding signal was 10.5 ln median PBM intensity, better of two orientations.

B10: CACACA_site2917 (dsDNA)
DNA 1: ACCATACATACATACACACACACACCCATATATATA
DNA 2: TATATATATGGGTGTGTGTGTGTATGTATGTATGGT
In the case of B10, the binding signal was 10.4 ln median PBM intensity, better of two orientations.

B11: CACACA_negctrl_site899 (dsDNA)
DNA 1: AATAAATAAATAAATATATATATATATATATATATG
DNA 2: CATATATATATATATATATATATTTATTTATTTATT
On to B11, for which the binding signal is 9.11 ln median PBM intensity, better of two orientations.

B12: CACACA_site8742 (dsDNA)
DNA 1: TTATGTTCTTTAAAACCACACACCCCCCAACCCCCC
DNA 2: GGGGGGTTGGGGGGTGTGTGGTTTTAAAGAACATAA
B12: the binding signal was 10.4 ln median PBM intensity, better of two orientations.

B13: CACACA_site8069 (dsDNA)
DNA 1: ACATAATTAACAAATACACACACACCCACCCACAAA
DNA 2: TTTGTGGGTGGGTGTGTGTGTATTTGTTAATTATGT
On to B13, for which the binding signal is 10.5 ln median PBM intensity, better of two orientations.

B14: CACACA_negctrl_site1686 (dsDNA)
DNA 1: ACAAGTGTATATGTTATATATATATATATATATATA
DNA 2: TATATATATATATATATATATAACATATACACTTGT
For the molecule B14, the binding signal was 9.1 ln median PBM intensity, better of two orientations.

B15: CACACA_site639 (dsDNA)
DNA 1: AAAATACACGCATACACACACACACCCACCCATATA
DNA 2: TATATGGGTGGGTGTGTGTGTGTATGCGTGTATTTT
As for B15, the binding signal is 10.5 ln median PBM intensity, better of two orientations.

B16: CACACA_site6306 (dsDNA)
DNA 1: AGCACACGCAGACACACACACACACGCACACGCACA
DNA 2: TGTGCGTGTGCGTGTGTGTGTGTGTCTGCGTGTGCT
As for B16, the binding signal was 10.5 ln median PBM intensity, better of two orientations.

B17: CACACA_negctrl_site1016 (dsDNA)
DNA 1: TATATTCCACTCATTGATTTTCTCTTCTCACAAAAA
DNA 2: TTTTTGTGAGAAGAGAAAATCAATGAGTGGAATATA
B17: the binding signal is 9.1 ln median PBM intensity, better of two orientations.

B18: CACACA_negctrl_site1797 (dsDNA)
DNA 1: AGATTATATATATGTATATATGTATATATTTATATA
DNA 2: TATATAAATATATACATATATACATATATATAATCT
Take B18: the binding signal is 9.11 ln median PBM intensity, better of two orientations.

B19: CACACA_site240 (dsDNA)
DNA 1: TTTATTTATTAATACACACACACACCCCCACAAAAT
DNA 2: ATTTTGTGGGGGTGTGTGTGTGTATTAATAAATAAA
For B19, the binding signal was 10.5 ln median PBM intensity, better of two orientations.

B20: CACACA_site8059 (dsDNA)
DNA 1: CATACATATAAACACACACACACACCCACCCACAAA
DNA 2: TTTGTGGGTGGGTGTGTGTGTGTGTTTATATGTATG
As for B20, the binding signal is 10.5 ln median PBM intensity, better of two orientations.

B21: CACACA_negctrl_site1632 (dsDNA)
DNA 1: AATTCACATGTGAACTAAAAGAATATTATATATATA
DNA 2: TATATATATAATATTCTTTTAGTTCACATGTGAATT
For the molecule B21, the binding signal is 9.11 ln median PBM intensity, better of two orientations.

B22: CACACA_site6305 (dsDNA)
DNA 1: CACACGCACGAACACACACACACACGCACGCACATA
DNA 2: TATGTGCGTGCGTGTGTGTGTGTGTTCGTGCGTGTG
Consider B22, for which the binding signal was 10.4 ln median PBM intensity, better of two orientations.

B23: CACACA_site7867 (dsDNA)
DNA 1: AAGGATATAACATACACACACACACGGATATAAATA
DNA 2: TATTTATATCCGTGTGTGTGTGTATGTTATATCCTT
B23: the binding signal was 10.4 ln median PBM intensity, better of two orientations.

B24: CACACA_site8057 (dsDNA)
DNA 1: ATTAAACATACATATACACACACACCCACCCACCCA
DNA 2: TGGGTGGGTGGGTGTGTGTGTATATGTATGTTTAAT
As for B24, the binding signal is 10.9 ln median PBM intensity, better of two orientations.

B25: CACACA_negctrl_site73 (dsDNA)
DNA 1: TTGATGTATACAATGTAGATTATTTAATATTTCAAC
DNA 2: GTTGAAATATTAAATAATCTACATTGTATACATCAA
B25: the binding signal is 9.09 ln median PBM intensity, better of two orientations.

B26: CACACA_site366 (dsDNA)
DNA 1: CACACCCACCAACACACACACACACCCACCCATATA
DNA 2: TATATGGGTGGGTGTGTGTGTGTGTTGGTGGGTGTG
As to B26, the binding signal was 10.4 ln median PBM intensity, better of two orientations.

B27: CACACA_site518 (dsDNA)
DNA 1: ATAATTAACAAATACACACACACACCCCCACAAAAA
DNA 2: TTTTTGTGGGGGTGTGTGTGTGTATTTGTTAATTAT
On to B27, for which the binding signal was 10.6 ln median PBM intensity, better of two orientations.

B28: CACACA_site2752 (dsDNA)
DNA 1: CAAACATATTAATGTACACACACCCACCCACAAACA
DNA 2: TGTTTGTGGGTGGGTGTGTGTACATTAATATGTTTG
For B28, the binding signal is 10.4 ln median PBM intensity, better of two orientations.

B29: CACACA_negctrl_site461 (dsDNA)
DNA 1: AGATATAGGAAAATAATATATATATATTTTTTTTTT
DNA 2: AAAAAAAAAATATATATATATTATTTTCCTATATCT
For the molecule B29, the binding signal was 9.11 ln median PBM intensity, better of two orientations.

B30: CACACA_site2625 (dsDNA)
DNA 1: AAATAAATGAAACACACACACACAAAAAAAAAAAAC
DNA 2: GTTTTTTTTTTTTGTGTGTGTGTGTTTCATTTATTT
In the case of B30, the binding signal is 10.5 ln median PBM intensity, better of two orientations.
